Series [1] deals with T1, His6-MBP-FXR1P (Homo sapiens, UniProt P51114-2 1-539). The series can be described thus: EMSA; 250 nM protein; FA: 20 mM Tris pH 7.5, 75 mM KCl, 5 mM MgCl2, 1 uM BSA, 1 mM DTT, 100 ng/uL tRNA, ~5 nM RNA, RT 1 h; EMSA: 50 mM Tris pH 7.5, 145 mM KCl, 5 mM MgCl2, 1 uM BSA. Particulars: protein: recombinant, tags: N-terminal His6-MBP. On the technique in general: Mobility shift assays separate free from complexed probe on a gel.

For series [2], the target named is His6-MBP (UniProt P0AEX9 27-392). Kind of series: fluorescence anisotropy; FA: 20 mM Tris pH 7.5, 75 mM KCl, 5 mM MgCl2, 1 uM BSA, 1 mM DTT, 100 ng/uL tRNA, ~5 nM RNA, RT 1 h; EMSA: 50 mM Tris pH 7.5, 145 mM KCl, 5 mM MgCl2, 1 uM BSA.
The target of series [3] is T1, His6-MBP-FXR1P. Kind of series: fluorescence anisotropy; 75 mM K+, 5 mM Mg2+; FA: 20 mM Tris pH 7.5, 75 mM KCl, 5 mM MgCl2, 1 uM BSA, 1 mM DTT, 100 ng/uL tRNA, ~5 nM RNA, RT 1 h; EMSA: 50 mM Tris pH 7.5, 145 mM KCl, 5 mM MgCl2, 1 uM BSA. Particulars: protein: recombinant; tags: N-terminal His6-MBP; label: 3' fluorescein; G-quadruplex forming. (In general: In fluorescence polarisation assays a small probe gives low polarisation when free and higher when bound to something large.)

This passage reports binding result and Kd results from article PMC7522082, “A simple procedure for bacterial expression and purification of the fragile X protein family”.

T1 sequence (P51114 other isoform, or with tags, fused parts or gaps): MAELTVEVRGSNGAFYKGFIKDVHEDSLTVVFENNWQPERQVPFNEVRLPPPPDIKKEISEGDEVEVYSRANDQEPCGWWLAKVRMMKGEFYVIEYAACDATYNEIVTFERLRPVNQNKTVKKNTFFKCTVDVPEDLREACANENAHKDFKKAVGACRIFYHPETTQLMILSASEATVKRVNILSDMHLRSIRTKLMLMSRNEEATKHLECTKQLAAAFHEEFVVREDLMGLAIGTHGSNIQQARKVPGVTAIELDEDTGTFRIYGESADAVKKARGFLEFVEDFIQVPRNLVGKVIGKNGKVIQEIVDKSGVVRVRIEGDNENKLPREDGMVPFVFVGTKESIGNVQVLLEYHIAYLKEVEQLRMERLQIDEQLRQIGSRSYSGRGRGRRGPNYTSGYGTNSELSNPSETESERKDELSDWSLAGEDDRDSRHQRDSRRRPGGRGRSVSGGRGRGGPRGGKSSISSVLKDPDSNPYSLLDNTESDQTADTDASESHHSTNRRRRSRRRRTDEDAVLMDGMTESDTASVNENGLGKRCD

B1: CR1 (ssRNA)
RNA: GCUAUCCAGAUUCUGAUU
For B1, in series [1] (label: 3' fluorescein, single strand, no predicted G-quadruplex), the binding result is recorded as “no binding”.

B2: ΔKC2 (structured_RNA)
RNA: GGGCGAAUUCGGGAUUCCGACCAGAAGGGGCUAAGGAAUGGUGGGACGAGCUAGCGGCUGGUAUGUGCGUCU
As to B2, in series [1] (label: 3' fluorescein (FTSC, periodate-oxidized 3' end), loop-loop pseudoknot (kissing complex)), the binding result is listed as “binds”.

B3: poly-G17U (structured_RNA)
RNA: GGGGGGGGGGGGGGGGGU
Broadly, the Kd is the equilibrium constant for the complex coming apart. Take B3: in series [2], the binding result is “no binding”. In addition, in series [3], the Kd was 11.7 ± 1 nM.
